Measurements as given in article PMC9076861.

Target: human insulin receptor overexpressed on Rat-1 cells (Rat-1/hIR) (human) (UniProt P06213)

How did the EC50 of IR Y1150 phosphorylation in Rat-1/hIR cells, various concentrations of insulin for 5 min, western blot, four-parameter logistic fit turn out when insulin from bovine pancreas (ligand) was run?
Its EC50 of IR Y1150 phosphorylation in Rat-1/hIR cells, various concentrations of insulin for 5 min, western blot, four-parameter logistic fit is 86.4 nM.
